Laboratory results taken from US20040132641A1 (University of Pennsylvania, published 2004).
Positions of bridges follow the written chain, without caps; N, C: chain ends. No end group written: not given here.

Tests used:
[1] = target: T1, Human recombinant TNF-receptor (I) extracellular domain-IgGFc fusion protein (TNFRI-Fc) (human, UniProt P19438 30-211); experiment: SPR (BIAcore), target immobilised on sensor chip
T1 construct: extracellular domain; not shown: IgG Fc
T1 sequence (looked up): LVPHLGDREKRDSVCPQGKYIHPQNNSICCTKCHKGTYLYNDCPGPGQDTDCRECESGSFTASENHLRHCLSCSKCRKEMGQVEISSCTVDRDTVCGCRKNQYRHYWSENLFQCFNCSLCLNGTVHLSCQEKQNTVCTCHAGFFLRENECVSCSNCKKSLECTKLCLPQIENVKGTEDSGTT
Description: (§1) To assess the specificity of Kp7-6 binding interaction, Fas, FasL and TNFα were immobilized on a sensor chip. Kp7-6 bound to FasL but not to TNFα, which indicates Kp7-6 bound to FasL specifically (FIG. 3B). Kp7-6 also bound to Fas (FIG. 3B). […] (Naismith, J. H. et al. Structure 4, 1251-1262 (1996)). […] No significant binding to TNF-R was detected.
(§2) Biosensor analysis. All experiments were carried out on a BIAcore 3000 instrument (Biacore A G, Uppsala, Sweden) at 25° C. using PBS, pH 7.4, containing 0.005% surfactant P20 (Biacore A G) as the running buffer. FasL-Flag, Fas-Fc or TNFRI-Fc was immobilized on research-grade CM5 sensor chips (Biacore AG) using standard N-ethyl-N-dimethylaminopropyl carbodiimid/N-hydroxysuccinimide coupling. Immobilization was performed in 10 mM sodium acetate buffer at pH 4.5 for FasL-Flag and Fas-Fc, and at pH 4.0 for TNFRI-Fc. After coupling, excess N-hydroxysuccinimide groups were inactivated with ethanolamine. For binding studies, about 1500 resonance units (RU) of FasL-Flag, Fas-Fc and TNFRI-Fc were coupled to the chips. Surface plasmon resonance (SPR) measurements were carried out at a flow rate of 20 ml min⁻¹. Data were analyzed with the BIA evaluation 3.0 software (Biacore AG). The sensograms give values for the relative response in resonance units (RU) after background subtraction versus time in seconds. […]

[2] = target: T2, human Fas extra cellular domain-IgGFc fusion protein (Fas-Fc) (human, UniProt P25445 26-173); experiment: SPR (BIAcore 3000), Fas-Fc immobilised, Kp7-6 in flow
T2 construct: extracellular domain; Bought from Kamiya Biomedical; also called soluble Fas receptor; not shown: IgG Fc
T2 sequence (looked up): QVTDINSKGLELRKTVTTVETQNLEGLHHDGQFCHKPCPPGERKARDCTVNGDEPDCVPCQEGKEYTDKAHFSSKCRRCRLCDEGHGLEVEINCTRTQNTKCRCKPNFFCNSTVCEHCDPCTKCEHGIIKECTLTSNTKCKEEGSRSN
Description: as §1, §2

[3] = target: T3, Human recombinant TNFα (human, UniProt P01375 77-233); experiment: SPR (BIAcore 3000), TNFα immobilised, Kp7-6 in flow; peptide concentration not given
T3 construct: Bought from Roche Diagnostics
T3 sequence (P01375 77-233 limits assumed): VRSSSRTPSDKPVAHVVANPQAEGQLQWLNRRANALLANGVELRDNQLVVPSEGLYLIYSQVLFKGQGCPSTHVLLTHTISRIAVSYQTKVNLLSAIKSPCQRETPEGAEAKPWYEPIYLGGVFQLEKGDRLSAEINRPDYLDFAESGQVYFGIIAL

[4] = target: T4, Flag-tagged soluble human Fas ligand (FasL-Flag) (human, UniProt P48023 103-281, limits assumed); experiment: SPR (BIAcore), FasL-Flag immobilised, Kp7-6 in solution
T4 construct: Bought from Kamiya Biomedical; also called soluble FasL-Flag fusion protein; not shown: Flag tag
T4 sequence (looked up): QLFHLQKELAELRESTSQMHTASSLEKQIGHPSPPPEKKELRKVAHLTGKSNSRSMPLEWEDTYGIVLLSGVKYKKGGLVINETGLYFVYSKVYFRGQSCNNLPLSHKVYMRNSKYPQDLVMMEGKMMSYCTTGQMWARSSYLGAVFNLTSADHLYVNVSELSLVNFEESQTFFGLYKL
Description: (§3) The kinetics of binding of Kp7-6, which mediated the best inhibitory activity to FasL, was performed using surface plasmon resonance (BIAcore™) analysis. FasL-Flag was immobilized onto a sensor chip and various solutions containing different concentrations of Kp7-6 were passed over the surface. […] The koff value is considered as an important indicator in the development of therapeutics with biological activity (Benveniste, M. et al. Br J Pharmacol 104, 207-221 (1991); Yiallouros, I. et al. Biochem J 331, 375-379 (1998)), and generally correlates with potent biological effects. (Moosmayer, D. et al. J Interferon Cytokine Res 16, 471-477 (1996)). […] (Berezov, A. et al. J Med Chem 44, 2565-2574 (2001)).
as §2, with “For binding studies, about 1500 resonance units (RU) of FasL-Flag, Fas-Fc and TNFRI-Fc were coupled to the chips. Surface plasmon resonance (SPR) measurements were carried out at a flow rate of 20 ml min⁻¹.” left out, “AG).” for “AG). The sensograms give values for the relative response in resonance units (RU) after background subtraction versus time in seconds.”

[5] = target: T4, Flag-tagged soluble human Fas ligand …; experiment: SPR (BIAcore), FasL-Flag immobilised, Kp7-6 in solution; ratio of rate constants
Description: as §3
as §2, with “For binding studies, about 1500 resonance units (RU) of FasL-Flag, Fas-Fc and TNFRI-Fc were coupled to the chips. Surface plasmon resonance (SPR) measurements were carried out at a flow rate of 20 ml min⁻¹.” left out, “AG).” for “AG). The sensograms give values for the relative response in resonance units (RU) after background subtraction versus time in seconds.”

[6] = target: T4, Flag-tagged soluble human Fas ligand …; experiment: solid phase ligand binding assay; peptide preincubated with FasL-Flag, inhibition of binding to immobilised Fas-Fc
Description: To compare the inhibitory activities of the Kp7 peptide series, dose-response studies were performed. The best activity was found with Kp7-6, which inhibited 50% of the FasL-Flag molecule binding to immobilized Fas-Fc at 150 μM (FIG. 2B).
Solid phase ligand binding assay. Fas-Fc fusion protein (250 ng/ml) diluted in PBS was immobilized onto 96 well ELISA plate (Costar, High Wycombe, UK) by incubating overnight at 4° C. After blocking with PBS containing 1% skim milk overnight at 4° C. and subsequent washing with PBS containing 0.05% Tween 20 (PBS-Tw), Flag-tagged soluble FasL (100 ng/ml)/peptide solution preincubated in PBS containing 1% skim milk for 1 h at 37° C. was added onto the Fas-Fc coated wells. After 2 h incubation at room temperature, the plate was washed with PBS-Tw, and anti-FLAG(M2)-HRP antibody 1:2500 in PBS containing 1% skim milk was added. After 1 h incubation at room temperature, the plate was washed with PBS-Tw, and the enzyme reaction was started by adding the substrate solution (0.1M sodium acetate buffer (pH 5.0) containing 100 μg/ml of TMBZ and 0.005% (v/v) H₂O₂) and stopped with 2N H₂SO₄. The absorbance at 450 nm was measured with an ELISA reader.

B1: Kp7-6 (peptide)
peptide: YCDEHFCY
modifications: disulfide 2-7
notes: Synthetic exocyclic peptide derived from the Kp7 loop of human Fas (91 CDEGHGL 97); also called Fas mimetic Kp7-6; exocyclic mimetic Kp7-6
binding result [1]: no binding
binding result [2]: binds
binding result [3]: no binding
koff [4]: 0.000765 s⁻¹
Kd [5]: 11.2 µM
IC50 [6]: 150 µM
